Assay results: FireProtDB (doi:10.1021/bi00135a019)

Details: Aspergillus oryzae (strain ATCC 42149 / RIB 40), DSC, reversible: yes, whole UniProt chain shown; for Tm / heat capacity change of unfolding / unfolding enthalpy (calorimetric) / unfolding enthalpy (van 't Hoff): Thermal; for denaturant m value / denaturant midpoint (higher = more stable) / unfolding free energy: Urea, MOPS 30 mM
[1] = pH 7, PIPES 30 mM, MgCl2 0.01 M
[2] = pH 7, PIPES 30 mM, MgCl2 0.02 M
[3] = pH 7, PIPES 30 mM, MgCl2 0.03 M
[4] = pH 7, PIPES 30 mM, MgCl2 0.06 M
[5] = pH 7, PIPES 30 mM, MgCl2 0.10 M
[6] = pH 7, PIPES 30 mM, MgCl2 0.20 M

B1: Guanyl-specific ribonuclease T1 wild type, P00651 (protein)
chain: MMYSKLLTLTTLLLPTALALPSLVERACDYTCGSNCYSSSDVSTAQAAGYQLHEDGETVGSNSYPHKYNNYEGFDFSVSSPYYEWPILSSGDVYSGGSPGADRVVFNENNQLAGVITHTGASGNNFVECT
pH 2.2, glycine 30 mM
  Tm: 45.4 °C
  heat capacity change of unfolding: 1.53 kcal/mol/K
  unfolding enthalpy (calorimetric): 89.6 kcal/mol
  unfolding enthalpy (van 't Hoff): 114 kcal/mol
pH 2.8, glycine 30 mM
  Tm: 49 °C
  heat capacity change of unfolding: 1.64 kcal/mol/K
  unfolding enthalpy (calorimetric): 95.3 kcal/mol
  unfolding enthalpy (van 't Hoff): 109 kcal/mol
pH 4, acetate 30 mM
  Tm: 56.7 °C
  heat capacity change of unfolding: 2.47 kcal/mol/K
  unfolding enthalpy (calorimetric): 102 kcal/mol
  unfolding enthalpy (van 't Hoff): 114 kcal/mol
pH 5, acetate 30 mM
  Tm: 56.5 °C
  heat capacity change of unfolding: 1.74 kcal/mol/K
  unfolding enthalpy (calorimetric): 106 kcal/mol
  unfolding enthalpy (van 't Hoff): 117 kcal/mol
pH 7, 14.9 °C
  denaturant m value: 1.26 kcal/mol/M
  denaturant midpoint (higher = more stable): 5.65 M
  unfolding free energy: 6.84 kcal/mol
pH 7, 21.1 °C
  denaturant m value: 1.1 kcal/mol/M
  denaturant midpoint (higher = more stable): 4.98 M
  unfolding free energy: 6.03 kcal/mol
pH 7, 23.05 °C
  denaturant m value: 1.2 kcal/mol/M
  denaturant midpoint (higher = more stable): 4.86 M
  unfolding free energy: 5.89 kcal/mol
pH 7, 25 °C
  denaturant m value: 1.2 kcal/mol/M
  denaturant midpoint (higher = more stable): 4.58 M
  unfolding free energy: 5.55 kcal/mol
pH 7, 27 °C
  denaturant m value: 1.2 kcal/mol/M
  denaturant midpoint (higher = more stable): 4.14 M
  unfolding free energy: 5.01 kcal/mol
pH 7, 29 °C
  denaturant m value: 1.27 kcal/mol/M
  denaturant midpoint (higher = more stable): 3.93 M
  unfolding free energy: 4.76 kcal/mol
pH 7, 34.75 °C
  denaturant m value: 1.22 kcal/mol/M
  denaturant midpoint (higher = more stable): 2.92 M
  unfolding free energy: 3.54 kcal/mol
pH 7, 40.1 °C
  denaturant m value: 1.28 kcal/mol/M
  denaturant midpoint (higher = more stable): 2.13 M
  unfolding free energy: 2.58 kcal/mol
pH 7, PIPES 30 mM, MgCl2 0 M
  Tm: 48.9 °C
  heat capacity change of unfolding: 1.35 kcal/mol/K
  unfolding enthalpy (calorimetric): 95.5 kcal/mol
  unfolding enthalpy (van 't Hoff): 118 kcal/mol
[1]
  Tm: 52.4 °C
  heat capacity change of unfolding: 1.22 kcal/mol/K
  unfolding enthalpy (calorimetric): 98.2 kcal/mol
  unfolding enthalpy (van 't Hoff): 117 kcal/mol
[2]
  Tm: 53.5 °C
  heat capacity change of unfolding: 0.86 kcal/mol/K
  unfolding enthalpy (calorimetric): 98.9 kcal/mol
  unfolding enthalpy (van 't Hoff): 117 kcal/mol
[3]
  Tm: 54 °C
  heat capacity change of unfolding: 0.94 kcal/mol/K
  unfolding enthalpy (calorimetric): 99.1 kcal/mol
  unfolding enthalpy (van 't Hoff): 119 kcal/mol
[4]
  Tm: 55.4 °C
  heat capacity change of unfolding: 1.02 kcal/mol/K
  unfolding enthalpy (calorimetric): 104 kcal/mol
  unfolding enthalpy (van 't Hoff): 120 kcal/mol
[5]
  Tm: 56.6 °C
  heat capacity change of unfolding: 1.11 kcal/mol/K
  unfolding enthalpy (calorimetric): 104 kcal/mol
  unfolding enthalpy (van 't Hoff): 121 kcal/mol
[6]
  Tm: 58.1 °C
  heat capacity change of unfolding: 0.71 kcal/mol/K
  unfolding enthalpy (calorimetric): 104 kcal/mol
